The subject of one assay is WHV. Briefly: Northern blot of WHV viral mRNAs in Chang cells. The assay is classed as cell-based, Woodchuck Hepatitis B Virus. The settings on record: Chang cells co-transfected with wtWHV. The method, then:
Chang cells were washed twice with PBS and total RNA prepared according to the manufacturer's instructions (RNeasy mini kit; Qiagen). 15 μg total RNA per sample were resolved through a 1.2% formaldehyde-agarose gel (Sambrook et al., 1989, supra), transferred to Duralon UV membrane, and pre-hybridized in Quick-Hyb solution (Stratagene) at 65° C. Hybridization to 32P-labeled full length WHV probe was carried out in the same solution at 65° C., washed as described above, and autoradiographed for 1 day.
It was next addressed whether the stimulation of viral replication by WHx was a result of transcriptional transactivation of WHV genes by WHx. Chang cells were transfected with wtWHV or pCWHV plasmids. Total cellular RNA was isolated 4 days post-transfection, equal amounts of RNA were resolved by electrophoresis through a 1.2% formaldehyde-agarose gel, and the viral mRNAs were visualized by Northern blot analysis using a ^32P-labeled probe corresponding to the entire WHV genome (FIG. 8, lanes 1 and 4). Steady-state levels of the genomic viral mRNAs was enhanced ˜3-5 fold in Chang cells expressing wtWHV as compared to PCWHV. […]

Another assay deals with AP-1. Briefly: AP-1 dependent luciferase reporter in Chang cells expressing HBx. It is filed as cell-based. Conditions: AP-1 luciferase reporter. As for the experimental part: FIGS. 3A and 3B. Transcriptional activation of AP-1 by HBx involves activation of Src kinases. Chang cells transfected with 8 μg plasmids pCMV-X or pCMV-Xo, with or without cotransfection of pCsk for 18 h, then serum starved for 18 h. (FIG. 3A) Cell extracts were prepared for AP-1 EMSA as described (Benn et al., 1996, supra) using a ^32P-labeled dsDNA oligonucleotide probe containing one AP-1 binding site. Reactions were carried out using 3 μg of nuclear extract, labeled oligonuleotide and 1 μg of poly(dI-dC) for 30 min at 23° C. Protein-DNA complexes were resolved by electrophoresis on 4% polyacrylamide gels and visualized by PhosphorImage analysis. As a positive control for AP-1 stimulation, cells were treated with 20 μM TPA for 30 min. (FIG. 3B) Cells were transfected as above but contained in addition 3 μg of plasmid pAP-1LUC, which encodes the luciferase reporter under the control of four AP-1 binding sites and a minimal TATA box promoter. Serum starved cells were harvested 18 h after transfection and the level of expression of the luciferase reporter assayed. Results are the average of three independent experiments.
Here it is shown that HBx activation of AP-1 DNA binding activity and AP-1 directed transcription, both involve an essential requirement for HBx activation of Src tyrosine kinases. […]
In general terms: Reporter assays use an easily measured gene product as a stand-in for the process of interest.

B1: Csk: Csk (carboxyl-terminal Src kinase), a specific physiologic inhibitor of Src kinase, expressed from a CMV promoter plasmid (protein, UniProt P41240 2-450, looked up)
Tyrosine-protein kinase CSK: SAIQAAWPSGTECIAKYNFHGTAEQDLPFCKGDVLTIVAVTKDPNWYKAKNKVGREGIIPANYVQKREGVKAGTKLSLMPWFHGKITREQAERLLYPPETGLFLVRESTNYPGDYTLCVSCDGKVEHYRIMYHASKLSIDEEVYFENLMQLVEHYTSDADGLCTRLIKPKVMEGTVAAQDEFYRSGWALNMKELKLLQTIGKGEFGDVMLGDYRGNKVAVKCIKNDATAQAFLAEASVMTQLRHSNLVQLLGVIVEEKGGLYIVTEYMAKGSLVDYLRSRGRSVLGGDCLLKFSLDVCEAMEYLEGNNFVHRDLAARNVLVSEDNVAKVSDFGLTKEASSTQDTGKLPVKWTAPEALREKKFSTKSDVWSFGILLWEIYSFGRVPYPRIPLKDVVPRVEKGYKMDAPDGCPPAVYEVMKNCWHLDAAMRPSFLQLREQLEHIKTHELHL
In the case of B1, the “reduction of WHV RNA level” value in the assay on WHV is 3-5 fold. The “effect on HBx induced activation of AP-1 dependent transcription” value in the assay with AP-1 is “fully blocked”.

For the origin of these results see patent US6420338B1, “Inhibition of the Src kinase family pathway as a method of treating HBV infection and hepatocellular carcinoma” (New York University Medical Center, priority 1997, dated 2002).
